Patent publication US7060670B1, “Stereoselective antifibrillogenic peptides and peptidomimetics thereof” (Neurochem (International) Limited, priority 1999, dated 2006)
“Also recorded” adds a separate entry of the source. Non-standard residues stand in square brackets, D forms with d. No end group written: not given here.

Assays:
Aβ(1–40) = target: T1, Aβ(1–40) (Homo sapiens, UniProt P05067); assay: thioflavin T fluorescence assay for fibrillogenesis of Aβ(1–40); type: biochemical; conditions: for Order Of Potency of Peptide Inhibitors, Tested at 20 μM / Order Of Potency of Peptide Inhibitors, Tested at 80 μM: rank, 1 = strongest activity, 11 = weakest, Aβ(1–40) 20 μM, by first appearance of fluorescence over 5-90 hours; for Order Of Potency of Peptide Inhibitors, Tested at 20 μM: peptide 20 μM; for Order Of Potency of Peptide Inhibitors, Tested at 80 μM: peptide 80 μM; for inhibition of [L]-Aβ (1–40) assembly/fibrillogenesis compared with the opposite stereoisomer: FIG. 2, all-[L] Aβ (1–40); for concentration required to give an equivalent inhibition: all-[D] versus all-[L] stereoisomer
T1 construct: Aβ (1–40) 95% purity (American Peptide Company); purchased American Peptide Company, Inc 62-0-78
T1 sequence (P05067 672-711 limits assumed): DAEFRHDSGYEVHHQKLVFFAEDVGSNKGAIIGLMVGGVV
Description: The thioflavin T fluorescence assay for fibrillogenesis is based on the principle that the fluorescent dye, thioflavin T, binds specifically to fibrillar, but not to unaggregated Aβ peptide (LeVine III, H., 1993, Protein Science 2:404–410). Upon binding, thioflavin T develops a characteristic fluorescence (Naiki, H., et al., 1996, Lab. Invest. 74: 374–383) which can be easily detected. The dye is believed to interact with the stacked cross-β pleated sheets, the common structural motif of all amyloids (LeVine III, H., 1995, Amyloid: Int. J. Exp. Clin Invest. 2:1.6). Thioflavin T is widely used to assay the effect of compounds on Aβ peptide fibrillogenesis (Bronfman, P. C., et al., 1995, Neuroscience Lett. 218:201–203). In this assay test compounds are incubated with a solution of Aβ(1–40) (20 μM) containing 10 μM thioflavin T, in 0.02M Tris/0.02M acetate/0.15M NaCl/0.005% azide/pH 7.40 at 37° C. in sealed 384 well microplates. Readings (ex 430 nm/em 485 nm) are taken at various time intervals with a microplate fluorescence reader. An increase in fluorescence signifies the appearance of amyloid or intermediates in the production of amyloid. Inhibitors of fibrillogenesis will lead to less fluorescence production. The results illustrated in Table 1 below, are based on the fluorescence production in the presence of test peptides at either 20 μM or 80 μM concentration, at the time intervals of 5, 19, 45, 67, 77 and 90 hours, compared to a control, buffer alone, without added inhibitory peptide. Protocol Aβ peptide: Aβ (1–40) 95% purity (American Peptide Company, Inc, Sunnyvale, Cal. USA, cat. 62-0-78) is disaggregated in trifluoroacetic acid and filtered through a […] filter, (Whatman Anotop 25 plus, 0.02 μm, Catalogue no. 6809 4102) in hexafluoroisopropanol (HFIP). Solutions of Aβ (1–40) at 600 μM in HFIP are stored at −80° C. Assay mixture: The mixture is prepared as two solutions that are combined upon addition to the 384 well microplate (Corning Costar cat. 3705). • i) Solution A consists of test peptides in 0.02M Tris/0.02M acetate/0.15M NaCl/0.01% azide at pH 7.40 or buffer alone (control), • ii) Solution B consists of Aβ(1–40) 40 μM, thioflavin T 20 μM in 0.02M Tris/0.02M acetate/0.15M NaCl at pH 7.40. This solution is prepared by drying the Aβ peptide under nitrogen and then resuspending this in 0.04M Tris base with 15 minutes sonication. An equal volume of 0.04M acetic acid containing 0.3 M NaCl is added and the solution is adjusted to pH 7.40±0.02. A small volume of 5 mM thioflavin T is added to the solution to give a final 20 μM concentration of thioflavin T. • iii) The microplate is loaded with 40 μL of solution A followed by 40 μL of solution B which gives a final 20 μM Aβ(1–40), 10 μM thioflavin T, and either 20 μM, 80 μM or 100 μM test compound in 0.02M Tris/0.02M acetate/0.15M NaCl/0.005% azide, pH 7.40. The plate is sealed and loaded into the microplate fluorescence reader. Fluorescence measurement data analysis: The HTS-7000 Bio Assay Reader, Perkin Elmer, is used to perform kinetic runs of about 5 days. Readings were taken at various time intervals, 5, 19, 45, 67, 77 and 90 hours, with one minute shaking before each reading. Bandpass filters used were: excitation 430 nm, emission […]. Calculations The rank order of efficacy of the peptides is determined by observing which peptides allow the appearance of fluorescence, above the background level, first. For example in the presence of buffer control alone, fluorescence appears earlier than when any of the peptides is present.

Aβ = Aβ (Homo sapiens, UniProt P05067); assay: Aβ-NBD environmental probe fibrillogenesis assay; type: biochemical
Sequence of Aβ (P05067 672-711 limits assumed): as above

[1] = tested on: SH-SY5Y human neuroblast cell line; assay: MTT cytoprotection assay, Aβ (1–40) toxicity on SH-SY5Y cells; type: cell-based; conditions: FIG. 6, 100 μM test peptide, listed as all-[D]-Lys-Lys-Leu-Val-Phe-Phe-Ala
Method: FIG. 6 uses the MTT assay on SH-SY5Y cells.
A SH-SY5Y human neuroblast cell line (American Type Culture Collection, cat. CRL-2266) is cultured according to technical specifications. Monomerized Aβ (1–40) is prepared using trifluoroacetic acid and hexafluoroisopropanol, in the same way already described for the thioflavin T fluorescence assay. Monomerized Aβ at various concentrations in TANA buffer (0.02 M TRIS base pH 7.4, 0.02M acetate, 0.15 M NaCl) is added to 100 μM test peptide and the mixture is incubated for 24 hours at 37° C. with agitation, in order to allow polymerization to occur. Cells are adhered to a 96-well microplate for 2 hours at 37° C. and 5% CO2 before the Aβ-peptide mixture, or buffer alone (control), is added. The microplate is gently agitated and incubated for 20–24 hours at 37° C. and 5% CO2. Cell viability is determined by a MTT-based colorimetric assay. The MTT assay (Boehringer Mannheim, Cell Proliferation Kit 1) is based on the principle that the yellow tetrazolium salt MTT is cleaved in metabolically-active cells to produce purple formazan crystals. The formazan crystals are solubilized and the resulting colored solution is quantified using a scanning multiwell spectrophotometer (ELISA reader, Absorbance A560 nm). Cellular toxicity was calculated as follows: […]

IAPP = target: T2, IAPP (Homo sapiens, UniProt P10997); assay: IAPP fibril formation (thioflavin T assay, circular dichroism, electron microscope); type: biochemical; conditions: circular dichroism and thioflavin T assay
T2 sequence (P10997 34-70 limits assumed): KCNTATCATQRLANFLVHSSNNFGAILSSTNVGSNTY
Description: Other amyloidogenic peptides such as IAPP, have also been tested.
The full-length IAPP is 37 amino acids and the β-sheet region is the 20–29 sequence. The 20–29 sequence is critical for forming β-sheet and has been previously shown to be a key region in modulating IAPP aggregation and folding.
Hexapeptides spanning the 20–29 region (Ser-Asn-Asn-Phe-Gly-Ala-Ile-Leu-Ser-Ser) of the IAPP protein were synthesized and tested for their ability to prevent fibril formation as determined by circular dichroism and the thioflavin T assay. […] These peptides (Ser-Asn-Asn-Phe-Gly-Ala- and Asn-Asn-Phe-Gly-Ala-Ile) were directed towards the central core of the 20–29 region.

Aβ40 [2] = target: T3, Aβ40 (Homo sapiens, UniProt P05067); assay: electron microscopy of peptide/Aβ40 mixture; type: biochemical; conditions: mixture of peptide and Aβ40
T3 construct: when incubated with Aβ40 under physiological conditions
T3 sequence (P05067 672-711 limits assumed): as the sequence (P05067 672-711 limits assumed) above
Description: (§1) It is the understanding of the inventors that this interesting observation will lead to a greater understanding of fibrillogenesis of Aβ40 and Aβ42 peptides and as a result, will provide important information for the design of potent anti-fibrillogenic compounds for Aβ, other amyloidotic peptides such as AA, AL and IAPP for the treatment of diseases such as Alzheimer's, Type II Diabetes and amyloidosis related disorders. The same principle can also be applied to the design of peptide type compounds for the inhibition of binding of various chemokines to the cell surface as well as inhibition of self assembly and cellular adherence of prion proteins.

Aβ40 [3] = target: T3, Aβ40; assay: CD spectrum of Aβ40 incubated with peptide (β-sheet content); type: biochemical; conditions: for β-sheet content of Aβ40 by CD spectrum at time t=0: physiological conditions
Description: as §1

125I-LBMP1620 = conditions: peptide synthesized by SPOT technique; cited from earlier work
[4] = tested on: fetal rat primary cortical neurons; assay: propidium iodide assay on primary cortical neurons with Aβ; type: cell-based; conditions: FIG. 7; compared to Congo red and Aβ alone; 3 days; listed as all-[D]-Lys-Leu-Val-Phe-Phe-Ala
Method: FIG. 7 uses the propidium iodide assay on primary cortical neurons. Briefly, fetal rat primary cortical neurons are isolated and cultured according to Durkin, J. P. et al., J. Neurochem., 66:951–962, 1996. Neurons are plated in a 48 well microplate. 7 days after plating the neuronal culture media is supplemented with B27 (Life Technologies, Data sheet form No. 3755). A mixture of Aβ and test peptide is added to the cortical neurons for 3 days at 37° C. and 5% CO2.
Cell viability is then visually assessed as the proportion of phase-bright cells that exclude propidium iodide, since only dead cells take up propidium iodide.

all-[D]-Aβ (1–40) = assay: thioflavin T fluorescence assay for fibril formation by [D]-Aβ (1–40); type: biochemical; conditions: FIG. 3

| Substance | Order Of Potency of Peptide Inhibitors, Tested at 20 μM (Aβ(1–40)) | Order Of Potency of Peptide Inhibitors, Tested at 80 μM (Aβ(1–40)) | other results |
| --- | --- | --- | --- |
| Lys-Phe-Val-Phe-Phe-Ala ([dK][dF][dV][dF][dF][dA]) [(D) KFVFFA] | 4 (D) KFVFFA | 1 (D) KFVFFA | – |
| Lys-Lys-Leu-Val-Phe-Phe-Ala [(D) KKLVFFA] ([dK][dK][dL][dV][dF][dF][dA]) | 2 (D) KKLVFFA | 1 (D) KKLVFFA | potency at lowest concentration tested versus highest concentration of all-[L] peptide (Aβ; all-[D] 25 μM versus all-[L] 800 μM): more potent than the highest concentration of the all-[L] peptide; potency of all-[D] relative to all-[L] stereoisomer peptide (Aβ; estimate from 25 μM all-[D] versus 800 μM all-[L]): at least 30 times; inhibition of Aβ (1–40) neurotoxicity (cytoprotection) [1]: potent cytoprotective agents; also recorded: more potent inhibitor; inhibition of [L]-Aβ (1–40) assembly/fibrillogenesis compared with the opposite stereoisomer (Aβ(1–40)): much more potent inhibitors; concentration required to give an equivalent inhibition (Aβ(1–40); listed as all-[D] stereoisomer peptide): 6.1 µM; potency of all-[D] relative to all-[L] stereoisomer peptide (Aβ(1–40); from 400 μM all-[L] versus 6.1 μM all-[D]): about 60 times |
| Lys-Ala-Val-Phe-Phe-Ala ([dK][dA][dV][dF][dF][dA]) [(D) KAVFFA] | 7 (D) KAVFFA | 6 (D) KAVFFA | – |
| NNFGAI [hexapeptide from the 20–29 β-sheet region of IAPP] | – | – | blocking of IAPP fibril formation (IAPP): capable of blocking the formation of IAPP fibrils |
| Lys-Ile-Val-Phe-Phe-Ala ([dK][dI][dV][dF][dF][dA]) [(D) KIVFFA] | 1 (D) KIVFFA | 5 (D) KIVFFA | – |
| AFFVLK [reference compound] | 11 (L) AFFVLK | 11 (L) AFFVLK | – |
| KVDDQD [hexapeptide] | – | – | fibrils seen by electron microscopy (Aβ40 [2]): failed to show any fibrils; anti-fibrillogenic activity in NBD based fluorescence assay (Aβ; in vitro): confirm this finding; β-sheet content of Aβ40 by CD spectrum after 24 hours incubation (Aβ40 [3]): dramatic increase; β-sheet content of Aβ40 by CD spectrum at time t=0 (Aβ40 [3]): increase; anti-fibrillogenic activity in thioflavin-T based fluorescence assay (Aβ(1–40); in vitro): confirm this finding |
| Lys-Leu-Val-Phe-Phe [(D) KLVFF] | 9 (D) KLVFF | 10 (D) KLVFF | 125I-LBMP1620 binding (125I-LBMP1620): failed to bind |
| KKLVFFA [reference compound] | 10 (L) KKLVFFA | 7 (L) KKLVFFA | concentration required to give an equivalent inhibition (Aβ(1–40)): 400 µM |
| Lys-Leu-Val-Phe-Phe-Ala [(D) KLVFFA] ([dK][dL][dV][dF][dF][dA]) | 3 (D) KLVFFA | 1 (D) KLVFFA | cytoprotective activity against Aβ [4]: potent cytoprotective agents; also recorded: potent cytoprotective activity; inhibition of [L]-Aβ (1–40) assembly/fibrillogenesis compared with the opposite stereoisomer (Aβ(1–40); listed as all [D]-Lys-Leu-Val-Phe-Phe-Ala): more potent inhibitor; inhibition of [L]-Aβ (1–40) assembly/fibrillogenesis compared with the opposite stereoisomer (Aβ(1–40); listed as all-[D]-Lys-Leu-Val-Phe-Phe-Ala): much more potent inhibitors |
| KLVFFA [reference compound] | 8 (L) KLVFFA | 8 (L) KLVFFA | inhibition of all-[D]-Aβ (1–40) assembly compared with the opposite stereoisomer (all-[D]-Aβ (1–40)): more potent inhibitor |
| Asp-Asp-Asp (DDD; peptide having antifibrillogenic activity and/or neuroprotection) [tripeptide] | – | – | β-sheet content of Aβ40 by CD spectrum after 24 hours incubation (Aβ40 [3]): no trace of β-sheet conformation; β-sheet content of Aβ40 by CD spectrum at time t=0 (Aβ40 [3]): slight decrease |
| Ala-Phe-Phe-Val-Leu-Lys [(D) AFFVLK] ([dA][dF][dF][dV][dL][dK]) | 5 (D) AFFVLK | 1 (D) AFFVLK | – |
| SNNFGA [hexapeptide from the 20–29 β-sheet region of IAPP] | – | – | blocking of IAPP fibril formation (IAPP): capable of blocking the formation of IAPP fibrils |
| Lys-Leu-Val-Phe ([dK][dL][dV][dF]) [(D) KLVF] | 6 (D) KLVF | 9 (D) KLVF | – |
